Source: patent publication US20130071375

Experiments:
[1] = target: High mobility group box 1 (UniProt P09429)
[2] = target: Thrombomodulin (recombinant) (UniProt P07204)
Thrombomodulin (recombinant), sequence (P07204 whole entry, looked up): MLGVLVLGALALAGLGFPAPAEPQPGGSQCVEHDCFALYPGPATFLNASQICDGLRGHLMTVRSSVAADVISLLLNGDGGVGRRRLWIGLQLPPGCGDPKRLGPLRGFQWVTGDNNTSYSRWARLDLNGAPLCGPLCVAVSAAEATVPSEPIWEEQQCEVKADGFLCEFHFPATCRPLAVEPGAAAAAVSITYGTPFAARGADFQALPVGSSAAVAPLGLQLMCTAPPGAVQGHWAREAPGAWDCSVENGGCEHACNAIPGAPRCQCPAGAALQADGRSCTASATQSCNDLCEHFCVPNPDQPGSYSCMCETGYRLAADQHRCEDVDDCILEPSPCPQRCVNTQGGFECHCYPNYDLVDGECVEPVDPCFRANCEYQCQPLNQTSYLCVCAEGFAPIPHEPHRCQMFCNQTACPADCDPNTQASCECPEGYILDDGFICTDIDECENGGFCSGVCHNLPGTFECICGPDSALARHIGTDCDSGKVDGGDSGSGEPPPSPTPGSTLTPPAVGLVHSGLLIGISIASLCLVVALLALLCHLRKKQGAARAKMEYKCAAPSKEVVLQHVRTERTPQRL

High mobility group box 1, sequence (P09429 whole entry): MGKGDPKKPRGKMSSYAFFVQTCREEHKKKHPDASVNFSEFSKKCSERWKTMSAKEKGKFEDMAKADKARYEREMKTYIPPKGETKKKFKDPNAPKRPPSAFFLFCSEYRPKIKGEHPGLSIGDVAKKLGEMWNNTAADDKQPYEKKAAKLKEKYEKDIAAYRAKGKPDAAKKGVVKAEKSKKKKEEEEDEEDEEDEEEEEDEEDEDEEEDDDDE

Substance	proteolytic degradation of HMGB1 by 100 nM APC, with or without soluble EPCR and/or PC/PS/PE vesicles, 2 hours at 37 C [1]	proteolytic cleavage of HMGB1 (400 nmol/L) by 2 nM protease, SDS-PAGE and immunoblot [1]	acceleration of HMGB1 cleavage by 2 nM PCgla/MeizoTh with 400 nmol/L recombinant TM, SDS-PAGE and immunoblot [2]
Activated protein C	APC had no direct proteolytic effect on HMGB1 ... did not lead to the degradation of HMGB1 even after 2 hours incubation at 37 °C (data not shown)	–	–
PCgla/meizothrombin (meizothrombin with its Gla-domain replaced by that of protein C; Factor Xa-activated PCgla/prothrombin-3A)	–	PCgla/MeizoTh can proteolytically cleave HMGB1	TM can function as a cofactor to markedly accelerate the cleavage reaction
